Experiments:
[1] = target: fluorescein-labeled ALK peptide G1473…1483; assay: fluorescence polarisation; fluorescein-labeled peptides and GST-PTBi in solution
[2] = target: fluorescein-labeled ALK peptide F1577…1587; assay: as above

GST-fused NUMB PTB domain with the exon 3 insert (11 aa) (domain or fragment)
Kd [1]: 700 nM
Kd [2]: 500 nM

Source: PMC6927325
